Measurements as given in patent US6090929.

Columns and labels:
[1] = molecular target: recombinant fragment of RIIα (RII 1-45); experiment: SPR (IAsys), gravin 1526-1780 coupled to the cuvette, RIIα 1-45 at 25 to 150 nM

| Kd [1] [µM] | kon [1] [M⁻¹ s⁻¹] | IC50 of inhibition of PKC activity toward peptide substrate … (PKC βII) [µM] | Binder |
| --- | --- | --- | --- |
| 0.1 | 160000 | – | gravin fragment residues 1526-1780 (protein) VAIEDLEPENGILELETKSSKLVQNIIQTAVDQFVRTEETATEMLTSELQTQAHVIKADSQDAGQETEKEGEEPQASAQDETPITSAKEESESTAVGQAHSDISKDMSEASEKTMTVEVEGSTVNDQQLEEVVLPSEEEGGGAGTKSVPEDDGHALLAERIEKSLVEPKEDEKGDDVDDPENQNSALADTDASGGLTKESPDTNGPKQKEKEDAQEVELQEGKVHSESDKAITPQAQEELQKQERESAKSELTES |
| – | – | 0.5 | gravin fragment residues 265-556 (protein) KEEGEEKQEKEPSKSAESPTSPVTSETGSTFKKFFTQGWAGWRKKTSFRKPKEDEVEASEKKKEQEPEKVDTEEDGKAEVASEKLTASEQAHPQEPAESAHEPRLSAEYEKVELPSEEQVSGSQGPSEEKPAPLATEVFDEKIEVHQEEVVAEVHVSTVEERTEEQKTEVEETAGSVPAEELVGMDAEPQEAEPAKELVKLKETCVSGEDPTQGADLSPDEKVLSKPPEGVVSEVEMLSSQERMKVQGSPLKKLFTSTGLKKLSGKKQKGKRGGGDEESGEHTQVPADSPDS |
